Measurements published in patent publication US12404328.

Target: CD19 expressed on the surface of KILR Raji cells (UniProt P15391)
Assay: cell-based or functional assay

CD19 expressed on the surface of KILR Raji cells, sequence (P15391 20-556 limits assumed): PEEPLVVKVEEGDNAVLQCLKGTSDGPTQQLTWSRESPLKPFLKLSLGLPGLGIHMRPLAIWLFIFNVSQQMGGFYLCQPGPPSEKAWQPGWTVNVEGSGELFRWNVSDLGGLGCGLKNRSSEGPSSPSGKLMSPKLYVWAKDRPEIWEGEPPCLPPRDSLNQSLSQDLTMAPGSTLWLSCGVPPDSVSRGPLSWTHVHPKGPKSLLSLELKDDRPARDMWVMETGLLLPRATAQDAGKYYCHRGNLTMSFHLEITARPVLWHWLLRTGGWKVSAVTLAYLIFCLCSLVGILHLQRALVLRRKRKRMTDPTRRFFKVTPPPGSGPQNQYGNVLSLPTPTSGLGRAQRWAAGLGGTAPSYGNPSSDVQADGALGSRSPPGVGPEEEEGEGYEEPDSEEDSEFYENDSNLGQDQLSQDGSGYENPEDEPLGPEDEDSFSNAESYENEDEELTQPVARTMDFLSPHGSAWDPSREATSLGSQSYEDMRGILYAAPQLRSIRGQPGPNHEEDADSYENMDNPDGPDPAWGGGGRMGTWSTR

**Q.** For blinatumomab (bispecific antibody), which EC50 of T cell-redirected killing of KILR Raji cells, +HSA (15 mg/mL) is on record?
**A.** 10.8 ng/mL

**Q.** What about the EC50 of T cell-redirected killing of KILR Raji cells, -HSA of the same substance?
**A.** 2.85 ng/mL

**Q.** What about the Fold change (EC50 +HSA / EC50 -HSA) of killing of KILR Raji cells of the same substance?
**A.** 3.8 fold
